For the experiment, the target named is superGmFLS2, C-terminal mEGFP (soybean (Glycine max)).

This is an account of results in PMC12364711.

In the case of “NbBAK1 (BRASSINOSTEROID … 1-ASSOCIATED KINASE 1 of Nicotiana benthamiana), C-terminal 4xHA (receptor)”, the total flg22^Rso-induced ROS production in N. benthamiana fls2 leaves, against wild-type GmFLS2b was over 3 fold.
